# Test results from the supplement of paper PMC12764529.
# ± gives the half width of the 95% confidence interval.
# Tests used:
# [1] = folding stability dG unfold from trypsin proteolysis; higher = more stable
# In short: (§1)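 K50 was inferred by Bayesian fitting of sequencing counts obtained after protease digestion of designed mini-proteins. Unfolding free energy was derived by comparison with a sequence-predicted unfolded-state K50 and a shared folded-state K50, for each protease or both combined. The mini-proteins were under 80 residues, had no cysteine, were carried in a PA-tagged cDNA display construct, and were kept only if AlphaFold2 dimer inter-PAE exceeded 15.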
# [2] = folding stability dG unfold from chymotrypsin proteolysis; higher = more stable
# In short: as §1
# [3] = folding stability dG unfold (combined trypsin and chymotrypsin); higher = more stable
# In short: as §1
sequence,measurement,setting,value
SAGSITLVFKTPEELEEALKKLAEELGLSEEEVEALKKELEEKFTITYDEETGYVTITLKPELSEEELKSAG [r5_717_TrROS_Hall],folding stability dG unfold,[1],2 ± 0.13 kcal/mol
same,folding stability dG unfold,[2],3.71 ± 0.15 kcal/mol
same,folding stability dG unfold,[3],3.44 ± 0.24 kcal/mol
SAGSKEALLSDPSFEPVEVEIHLEIEVPGVTPEEAEAIAKELEKEITEELKKKGIKNVKVTVTIRYVERSAG [r5_431_JUSTAS],folding stability dG unfold,[1],1.71 ± 0.044 kcal/mol
same,folding stability dG unfold,[2],2.49 ± 0.057 kcal/mol
same,folding stability dG unfold,[3],2.24 ± 0.071 kcal/mol
SAGSKEFPFESEFEFEGYRVKVEVKVRVEFDENGKPTKNFKPEIKIEIKPLPPKPVITAEEALKLDPEKSAG [r14_442_TrMRF],folding stability dG unfold,[1],0.114 ± 0.19 kcal/mol
same,folding stability dG unfold,[2],1.93 ± 0.14 kcal/mol
same,folding stability dG unfold,[3],1.47 ± 0.3 kcal/mol
SAGSKVPVTATATFSDKAELEKTVADIKAKTGYDIEVTYDPNSNSYTITVNTTDEVVKMLKEKGFKLESAGG [r19_306_JUSTAS],folding stability dG unfold,[1],2.33 ± 0.13 kcal/mol
same,folding stability dG unfold,[2],1.94 ± 0.13 kcal/mol
same,folding stability dG unfold,[3],2.14 ± 0.28 kcal/mol
SAGSLELPPGVSEVVYDPSSGVYSVRYPDGTLVQVDVLYEPDPFVDELHPVAFVSVYSPTSLLATAPLNSAG [r5_109_TrMRF],folding stability dG unfold,[1],0.821 ± 0.019 kcal/mol
same,folding stability dG unfold,[2],1.07 ± 0.11 kcal/mol
same,folding stability dG unfold,[3],0.979 ± 0.067 kcal/mol
SAGSMKIKIKAKVPPGPYRIRIMWQYPGGDFKPVEEETVDPGQEVKIPIEFPDGKPFDPDNIRVMIEPPSAG [r5_287_TrROS],folding stability dG unfold,[1],1.44 ± 0.14 kcal/mol
same,folding stability dG unfold,[2],2.47 ± 0.097 kcal/mol
same,folding stability dG unfold,[3],2.08 ± 0.25 kcal/mol
SAGSMLLIKITITFKDPNGNLLKTIPIEKEADPNDPEAIEKAKEEAEKLAEELLPEDELAEVKAEVLLLSAG [r5_793_JUSTAS],folding stability dG unfold,[1],1.73 ± 0.11 kcal/mol
same,folding stability dG unfold,[2],2.36 ± 0.097 kcal/mol
same,folding stability dG unfold,[3],2.24 ± 0.19 kcal/mol
SAGSMRTRKYEVERGEDEIVFPLPDGKVLRLPPDVGATVEVEYDPDGPPVRVTVRFPDGADYVLPYEELSAG [r5_45_JUSTAS],folding stability dG unfold,[1],-0.531 ± 0.45 kcal/mol
same,folding stability dG unfold,[2],1.11 ± 0.15 kcal/mol
same,folding stability dG unfold,[3],0.69 ± 0.15 kcal/mol
SAGSPATLRAQAEEEARALAAELGAEVTVDVTVEPVPGEYVVRTTATLTFPGGEVRTLPRTTRVPRSLVSAG [r5_609_JUSTAS],folding stability dG unfold,[1],0.671 ± 0.071 kcal/mol
same,folding stability dG unfold,[2],1.09 ± 0.08 kcal/mol
same,folding stability dG unfold,[3],0.953 ± 0.08 kcal/mol
SAGSPEELAEKIAEELAAEYEKKNPDKKPVKIEVKEVVVDPEGGSVTIKIKFYDPDGKPLAEPVITVESAGG [r19_53_JUSTAS],folding stability dG unfold,[1],1.74 ± 0.17 kcal/mol
same,folding stability dG unfold,[2],1.85 ± 0.13 kcal/mol
same,folding stability dG unfold,[3],1.76 ± 0.21 kcal/mol
SAGSPSIVRTPSLTYDPDPRNPSTPRLRQASVTATNPNGETITFTFTSLEDMDAALNAWIAANPELLSSAGG [r19_123_JUSTAS],folding stability dG unfold,[1],0.59 ± 0.11 kcal/mol
same,folding stability dG unfold,[2],1.74 ± 0.089 kcal/mol
same,folding stability dG unfold,[3],1.38 ± 0.08 kcal/mol
SAGSPVTLELRVTRPRADAATGAPATATETVTVTLPAAVVAAGLSPEEIARLLEAANPGATVELTAVASAGG [r19_110_JUSTAS],folding stability dG unfold,[1],0.844 ± 0.052 kcal/mol
same,folding stability dG unfold,[2],0.259 ± 0.14 kcal/mol
same,folding stability dG unfold,[3],0.582 ± 0.07 kcal/mol
SAGSRILERLREEGLTITKVTSVEKGPGYERIEVETALPDGTTGKVKVTRDPADPDKIEVELEFTPAEVSAG [r5_683_JUSTAS],folding stability dG unfold,[1],0.797 ± 0.022 kcal/mol
same,folding stability dG unfold,[2],1.71 ± 0.023 kcal/mol
same,folding stability dG unfold,[3],1.38 ± 0.052 kcal/mol
SAGSRTVTLTFYRPLSRPPGGAPVVREAERTVTLNLPDDTLSEEEIEALAEELRAEHPDVEVEITIDDSAGG [r19_369_JUSTAS],folding stability dG unfold,[1],0.664 ± 0.049 kcal/mol
same,folding stability dG unfold,[2],1.41 ± 0.092 kcal/mol
same,folding stability dG unfold,[3],1.18 ± 0.17 kcal/mol
SAGSSETYSFKSPEEAKKKLKEEYGVSVEELPGNRVRINLVLDNKPVVVLIDTSTNLATVVSPEVVERKSAG [r14_402_JUSTAS],folding stability dG unfold,[1],-0.219 ± 0.21 kcal/mol
same,folding stability dG unfold,[2],-0.291 ± 0.8 kcal/mol
same,folding stability dG unfold,[3],-0.257 ± 0.23 kcal/mol
SAGSSISSISRSPVSTEEDPSTNVRRTTYLEKYPGPPNLLKEVTVTTTFAPDGTPTVTPAVTTLSPALLSAG [r5_48_JUSTAS],folding stability dG unfold,[1],-0.817 ± 0.26 kcal/mol
same,folding stability dG unfold,[2],-0.899 ± 0.68 kcal/mol
same,folding stability dG unfold,[3],-0.717 ± 0.17 kcal/mol
SAGSSLRLELDLEVTLYAPVVSVRPDGSLSLVPGSTRPIPVRLRVTFELTLDPDNPLNVSINVDIEADFSAG [r14_274_TrMRF],folding stability dG unfold,[1],4.1 ± 0.076 kcal/mol
same,folding stability dG unfold,[2],5.9 ± 0.081 kcal/mol
same,folding stability dG unfold,[3],> 6 kcal/mol
SAGSSLTTTSTTTFPGTVRVTTKTPDGKTFTLTVSVSTVPTPDGRVVPSVTTTMDPAARSSNVSPEVDRSAG [r5_462_JUSTAS],folding stability dG unfold,[1],-0.463 ± 0.17 kcal/mol
same,folding stability dG unfold,[2],-0.0322 ± 0.075 kcal/mol
same,folding stability dG unfold,[3],-0.144 ± 0.086 kcal/mol
